In patent US20230218738A1 (Pfizer, published 2023):
Changes are numbered by the printed parent chain.

B1: AM22 (antibody, V domains shown)
VH: QVQLVQSGAEVKKPGATVKVSCKISGHTLIKLSIHWVRQAPGKGLEWMGGYEGEVDEIFYAQKFQHRLTVIADTATDTVYMELGRLTSDDTAVYFCGTLGVTVTEAGLGIDDYWGQGTLVTVSS
VL: EIVLTQSPGTLSLSPGERATLSCRASQIVSRNHLAWYQQKPGQAPRLLIFGASSRATGIPVRFSGSGSGTDFTLTINGLAPEDFAVYYCLSSDSSIFTFGPGTKVDFK
B2: MPE8 (antibody, V domains shown)
VH: EVQLVESGGGLVKPGGSLRLSCAASGFTFSSYSMNWVRQAPGKGLEWVSSISASSSYSDYADSAKGRFTISRDNAKTSLFLQMNSLRAEDTAIYFCARARATGYSSITPYFDIWGQGTLVTVSS
VL: QSVVTQTPSVSGAPGQRVTISCTGSSSNIGAGYDVHWYQQLPGTAPKLLIYDNNNRPSGVPDRFSASKSGTSASLAITGLQAEDEADYYCQSYDRNLSGVFGTGTKVTVL
notes: also called MPEG

Experiments:
Assay in all cases: BLI (Octet), F on anti-HIS tip, 20 nM mAb
[1] = target: T1, RSV F protein mutant pXCS888 (RSV A2, UniProt P03420 26-109)
T1 chain 1: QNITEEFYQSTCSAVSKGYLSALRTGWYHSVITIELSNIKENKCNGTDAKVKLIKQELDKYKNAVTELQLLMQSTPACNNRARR
T1 chain 2: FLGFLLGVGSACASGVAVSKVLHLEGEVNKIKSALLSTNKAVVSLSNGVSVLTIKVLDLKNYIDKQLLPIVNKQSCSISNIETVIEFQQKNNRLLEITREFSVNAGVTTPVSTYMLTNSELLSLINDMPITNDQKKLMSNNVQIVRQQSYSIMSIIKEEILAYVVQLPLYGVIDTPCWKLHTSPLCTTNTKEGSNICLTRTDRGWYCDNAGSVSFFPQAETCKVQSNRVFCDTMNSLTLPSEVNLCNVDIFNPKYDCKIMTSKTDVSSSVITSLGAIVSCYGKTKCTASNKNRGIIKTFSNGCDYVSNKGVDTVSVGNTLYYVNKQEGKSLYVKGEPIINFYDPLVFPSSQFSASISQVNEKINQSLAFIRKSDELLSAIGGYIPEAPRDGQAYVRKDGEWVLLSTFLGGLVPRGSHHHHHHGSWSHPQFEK

[2] = target: T2, RSV F protein mutant pXCS881 (RSV A2, UniProt P03420 26-109)
T2 chain 1: T1 chain 1 with S30C, C78T
T2 chain 2: T1 chain 2 with L6C, C12I, L52C, I54S, N235C

[3] = target: RSV F protein mutant pXCS884 (RSV A2, UniProt P03420 26-109)
[4] = target: RSV F protein mutant pXCS885 (RSV A2, UniProt P03420 26-109)
[5] = target: RSV F protein mutant pXCS787 (RSV A2, UniProt P03420 26-109)
[6] = target: T3, RSV F protein mutant pXCS845 (RSV A2, UniProt P03420 26-109)
T3 chain 1: T1 chain 1
T3 chain 2: T1 chain 2 with I54S, I160V, Q351E, S353D

[7] = target: T4, RSV F protein mutant pXCS890 (RSV A2, UniProt P03420 26-109)
T4 chain 1: T1 chain 1
T4 chain 2: T1 chain 2 with S350D, Q351E, S353D

[8] = target: RSV F protein mutant pXCS780 (RSV A2, UniProt P03420 26-109)
[9] = target: T5, RSV F protein mutant pXCS738 (RSV A2, UniProt P03420 26-109)
T5 chain 1: T1 chain 1 with S30C, C78T
T5 chain 2: T1 chain 2 with L6C, C12I, L52C, I54S, N235C, S350D, Q351E, S353D

Binder	Response (nm shift) [1] [nm]	Response (nm shift) [2] [nm]	Response (nm shift) [3] [nm]	Response (nm shift) [4] [nm]	Response (nm shift) [5] [nm]	Response (nm shift) [6] [nm]	Response (nm shift) [7] [nm]	Response (nm shift) [8] [nm]	Response (nm shift) [9] [nm]
B1	0.434	0.178	0.323	0.105	0.225	0.314	0.538	0.29	0.273
B2	0.878	0.763	0.784	0.408	0.621	0.699	0.999	0.608	0.741
